According to patent US20230322924A1 (Janssen / Centocor, published 2023):
Where two headings read alike, the source gives them in different places.

How the values were obtained:
[1] = biological target: T1, human PSMA on cells (LNCaP) (human, UniProt Q04609 1-750); experiment: flow cytometry cell binding assay on LNCaP cells
T1 construct: whole, on cells; also called LNCaP cells
Description: (§1) PSMA×CD3 bispecific antibodies were tested for binding to PSMA positive cell line, LNCAP, to PSMA negative cell line, PC3. To assess the binding capabilities of the PSMA bispecific antibodies, the cell-binding assay was utilized (described previously). Bispecific antibodies were normalized for protein concentration and then incubated with the same number of cells expressing either human or cyno PSMA. The MFI at each concentration was collected by flow cytometry and plotted as a function of concentration. Data was transformed via log 10 and then plotted. Nonlinear regression of binding curves was done to determine EC50s.

[2] = biological target: T1, human PSMA on cells (LNCaP); experiment: flow cytometry cell binding assay on LNCaP cells; remark: listed apart in the source
Description: as §1

T1 sequence (Q04609 whole entry): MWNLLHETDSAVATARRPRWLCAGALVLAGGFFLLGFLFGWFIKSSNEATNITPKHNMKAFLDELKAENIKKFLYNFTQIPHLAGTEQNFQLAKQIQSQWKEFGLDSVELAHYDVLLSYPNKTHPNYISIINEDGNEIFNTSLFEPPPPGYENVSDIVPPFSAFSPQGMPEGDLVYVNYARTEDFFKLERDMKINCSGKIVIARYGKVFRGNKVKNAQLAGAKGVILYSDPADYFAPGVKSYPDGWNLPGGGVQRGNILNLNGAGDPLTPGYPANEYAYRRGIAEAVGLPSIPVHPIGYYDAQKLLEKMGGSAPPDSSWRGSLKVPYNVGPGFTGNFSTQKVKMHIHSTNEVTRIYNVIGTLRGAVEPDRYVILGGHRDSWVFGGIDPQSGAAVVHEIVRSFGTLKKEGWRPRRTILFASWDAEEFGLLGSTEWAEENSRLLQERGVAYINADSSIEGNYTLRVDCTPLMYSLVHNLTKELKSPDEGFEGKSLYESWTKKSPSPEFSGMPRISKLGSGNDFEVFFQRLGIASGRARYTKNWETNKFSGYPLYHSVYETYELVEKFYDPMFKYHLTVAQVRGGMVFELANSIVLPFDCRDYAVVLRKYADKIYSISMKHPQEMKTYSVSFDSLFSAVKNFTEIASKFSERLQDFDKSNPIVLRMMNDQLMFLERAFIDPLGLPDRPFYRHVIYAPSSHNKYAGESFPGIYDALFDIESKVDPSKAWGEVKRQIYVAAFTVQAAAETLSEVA

Row | Binder | binding result [1] | binding result [2] | further results
1 | PS3B83 (bispecific antibody, human IgG4 S228P, kappa, lambda, F234A L235A, IgG4 PAA; also called PSMB363 x CD3B376) heavy 1: not shown light 1: not shown heavy 2: QVQLQQSGPRLVRPSQTLSLTCAISGDSVFNNNAAWSWIRQSPSRGLEWLGRTYYRSKWLYDYAVSVKSRITVNPDTSRNQFTLQLNSVTPEDTALYYCARGYSSSFDYWGQGTLVTVSSASTKGPSVFPLAPCSRSTSESTAALGCLVKDYFPEPVTVSWNSGALTSGVHTFPAVLQSSGLYSLSSVVTVPSSSLGTKTYTCNVDHKPSNTKVDKRVESKYGPPCPPCPAPEAAGGPSVFLFPPKPKDTLMISRTPEVTCVVVDVSQEDPEVQFNWYVDGVEVHNAKTKPREEQFNSTYRVVSVLTVLHQDWLNGKEYKCKVSNKGLPSSIEKTISKAKGQPREPQVYTLPPSQEEMTKNQVSLTCLVKGFYPSDIAVEWESNGQPENNYKTTPPVLDSDGSFLLYSKLTVDKSRWQEGNVFSCSVMHEALHNHYTQKSLSLSLGK light 2: QSALTQPASVSGSPGQSITISCTGTSSNIGTYKFVSWYQQHPDKAPKVLLYEVSKRPSGVSSRFSGSKSGNTASLTISGLQAEDQADYHCVSYAGSGTLLFGGGTKLTVLGQPKAAPSVTLFPPSSEELQANKATLVCLISDFYPGAVTVAWKADSSPVKAGVETTTPSKQSNNKYAASSYLSLTPEQWKSHRSYSCQVTHEGSTVEKTVAPTECS | binds | – | –
2 | PS3B85 (bispecific antibody, human IgG4 S228P, kappa, lambda, F234A L235A, IgG4 PAA; also called PSMB345 x CD3B376) heavy 1: not shown light 1: not shown heavy 2: QVQLQQSGPRLVRPSQTLSLTCAISGDSVFNNNAAWSWIRQSPSRGLEWLGRTYYRSKWLYDYAVSVKSRITVNPDTSRNQFTLQLNSVTPEDTALYYCARGYSSSFDYWGQGTLVTVSSASTKGPSVFPLAPCSRSTSESTAALGCLVKDYFPEPVTVSWNSGALTSGVHTFPAVLQSSGLYSLSSVVTVPSSSLGTKTYTCNVDHKPSNTKVDKRVESKYGPPCPPCPAPEAAGGPSVFLFPPKPKDTLMISRTPEVTCVVVDVSQEDPEVQFNWYVDGVEVHNAKTKPREEQFNSTYRVVSVLTVLHQDWLNGKEYKCKVSNKGLPSSIEKTISKAKGQPREPQVYTLPPSQEEMTKNQVSLTCLVKGFYPSDIAVEWESNGQPENNYKTTPPVLDSDGSFLLYSKLTVDKSRWQEGNVFSCSVMHEALHNHYTQKSLSLSLGK light 2: QSALTQPASVSGSPGQSITISCTGTSSNIGTYKFVSWYQQHPDKAPKVLLYEVSKRPSGVSSRFSGSKSGNTASLTISGLQAEDQADYHCVSYAGSGTLLFGGGTKLTVLGQPKAAPSVTLFPPSSEELQANKATLVCLISDFYPGAVTVAWKADSSPVKAGVETTTPSKQSNNKYAASSYLSLTPEQWKSHRSYSCQVTHEGSTVEKTVAPTECS | binds | – | –
3 | PS3B86 (bispecific antibody, human IgG4 S228P, kappa, lambda, F234A L235A, IgG4 PAA; also called PSMB346 x CD3B376) heavy 1: not shown light 1: not shown heavy 2: QVQLQQSGPRLVRPSQTLSLTCAISGDSVFNNNAAWSWIRQSPSRGLEWLGRTYYRSKWLYDYAVSVKSRITVNPDTSRNQFTLQLNSVTPEDTALYYCARGYSSSFDYWGQGTLVTVSSASTKGPSVFPLAPCSRSTSESTAALGCLVKDYFPEPVTVSWNSGALTSGVHTFPAVLQSSGLYSLSSVVTVPSSSLGTKTYTCNVDHKPSNTKVDKRVESKYGPPCPPCPAPEAAGGPSVFLFPPKPKDTLMISRTPEVTCVVVDVSQEDPEVQFNWYVDGVEVHNAKTKPREEQFNSTYRVVSVLTVLHQDWLNGKEYKCKVSNKGLPSSIEKTISKAKGQPREPQVYTLPPSQEEMTKNQVSLTCLVKGFYPSDIAVEWESNGQPENNYKTTPPVLDSDGSFLLYSKLTVDKSRWQEGNVFSCSVMHEALHNHYTQKSLSLSLGK light 2: QSALTQPASVSGSPGQSITISCTGTSSNIGTYKFVSWYQQHPDKAPKVLLYEVSKRPSGVSSRFSGSKSGNTASLTISGLQAEDQADYHCVSYAGSGTLLFGGGTKLTVLGQPKAAPSVTLFPPSSEELQANKATLVCLISDFYPGAVTVAWKADSSPVKAGVETTTPSKQSNNKYAASSYLSLTPEQWKSHRSYSCQVTHEGSTVEKTVAPTECS | binds | – | –
4 | PS3B27 (bispecific antibody) chain 1: not shown chain 2: not shown chain 3: EVQLVESGGGLVQPGGSLRLSCAASGFTFNTYAMNWVRQAPGKGLEWVARIRSKYNNYATYYAASVKGRFTISRDDSKNSLYLQMNSLKTEDTAVYYCARHGNFGNSYVSWFAYWGQGTLVTVSSASTKGPSVFPLAPCSRSTSESTAALGCLVKDYFPEPVTVSWNSGALTSGVHTFPAVLQSSGLYSLSSVVTVPSSSLGTKTYTCNVDHKPSNTKVDKRVESKYGPPCPPCPAPEAAGGPSVFLFPPKPKDTLMISRTPEVTCVVVDVSQEDPEVQFNWYVDGVEVHNAKTKPREEQFNSTYRVVSVLTVLHQDWLNGKEYKCKVSNKGLPSSIEKTISKAKGQPREPQVYTLPPSQEEMTKNQVSLTCLVKGFYPSDIAVEWESNGQPENNYKTTPPVLDSDGSFLLYSKLTVDKSRWQEGNVFSCSVMHEALHNHYTQKSLSLSLGK chain 4: QTVVTQEPSLTVSPGGTVTLTCRSSTGAVTTSNYANWVQQKPGQAPRGLIGGTNKRAPGTPARFSGSLLGGKAALTLSGVQPEDEAEYYCALWYSNLWVFGGGTKLTVLGQPKAAPSVTLFPPSSEELQANKATLVCLISDFYPGAVTVAWKADSSPVKAGVETTTPSKQSNNKYAASSYLSLTPEQWKSHRSYSCQVTHEGSTVEKTVAPTECS | – | – | EC50 (read off the curve) [1]: ~6 nM; EC50 (read off the curve) [2]: ~6 nM
5 | PS3B60 (bispecific antibody, human IgG4 S228P, kappa, F234A L235A, IgG4 PAA; CD3 arm with F405L, R409K; also called PSMB344 x CD3B219) heavy: not shown light: not shown VH: EVQLVESGGGLVQPGGSLRLSCAASGFTFNTYAMNWVRQAPGKGLEWVARIRSKYNNYATYYAASVKGRFTISRDDSKNSLYLQMNSLKTEDTAVYYCARHGNFGNSYVSWFAYWGQGTLVTVSS VL: QTVVTQEPSLTVSPGGTVTLTCRSSTGAVTTSNYANWVQQKPGQAPRGLIGGTNKRAPGTPARFSGSLLGGKAALTLSGVQPEDEAEYYCALWYSNLWVFGGGTKLTVL | – | binds | –
6 | PS3B64 (bispecific antibody, human IgG4 S228P, kappa, F234A L235A, IgG4 PAA; CD3 arm with F405L, R409K; also called PSMB349 x CD3B219) heavy: not shown light: not shown VH: EVQLVESGGGLVQPGGSLRLSCAASGFTFNTYAMNWVRQAPGKGLEWVARIRSKYNNYATYYAASVKGRFTISRDDSKNSLYLQMNSLKTEDTAVYYCARHGNFGNSYVSWFAYWGQGTLVTVSS VL: QTVVTQEPSLTVSPGGTVTLTCRSSTGAVTTSNYANWVQQKPGQAPRGLIGGTNKRAPGTPARFSGSLLGGKAALTLSGVQPEDEAEYYCALWYSNLWVFGGGTKLTVL | – | binds | –
7 | PS3B73 (bispecific antibody, human IgG4 S228P, kappa, F234A L235A, IgG4 PAA; CD3 arm with F405L, R409K; also called PSMB361 x CD3B219) heavy: not shown light: not shown VH: EVQLVESGGGLVQPGGSLRLSCAASGFTFNTYAMNWVRQAPGKGLEWVARIRSKYNNYATYYAASVKGRFTISRDDSKNSLYLQMNSLKTEDTAVYYCARHGNFGNSYVSWFAYWGQGTLVTVSS VL: QTVVTQEPSLTVSPGGTVTLTCRSSTGAVTTSNYANWVQQKPGQAPRGLIGGTNKRAPGTPARFSGSLLGGKAALTLSGVQPEDEAEYYCALWYSNLWVFGGGTKLTVL | – | binds | –
